Laboratory results: patent US20130028978A1, “COMPOSITIONS AND METHODS FOR WOUND TREATMENT” (The Trustees of Columbia University in the City of New York, priority 2009, published 2013)
“Also recorded” adds a separate entry of the source.

Legend:
[1] = tested on: keloid cell; test: Keloid cell matrix synthesis; type: cell-based; conditions: 0, 50, 100, 200, 500 ng/ml
[2] = tested on: MSCs or MSC-derived fibroblasts (MSC-Fb); test: Myofibroblastic differentiation: αSMA expression by immunofluorescence and flow cytometry; type: cell-based, human
Procedure: MSC-derived fibroblasts were subjected to 5 ng/mL recombinant human TGFβ1 (R&D Systems, Minneapolis, Minn.) for 7 days. Undifferentiated hMSCs were treated with TGFβ1 as control. The expression of αSMA (Abcam, Cambridge, Mass.) was evaluated by immunofluorescence with rhodamine-phalloidin (Invitrogen, Carlsbad, Calif.). The number of αSMA+ cells was quantified by flow cytometry.
Briefly, cells were trypsinized, counted, resuspended into 1×10^6 cells/tube and fixed in […] formaldehyde. Following washing in 0.1% triton, the cells were incubated with αSMA primary antibody (Abcam, Cambridge, Mass.) for 30 min. Following centrifugation at 400 g for 5 min, the cells were incubated with fluorochrome-labeled secondary antibody (Abcam, Cambridge, Mass.) for 30 min in the dark, and resuspended in PBS supplemented with 3% BSA and 1% sodium azide. The samples were then analyzed using a multifunctional cell sorter (FACSAria™ II; BD Biosciences, San Jose, Calif.).

[3] = tested on: MSCs in collagen type I gel; test: Collagen gel contraction assay; type: cell-based, human; conditions: cell-populated collagen lattices, up to 7 days
Procedure: Neutralized collagen type I (2 mg/mL) (R&D Systems, Minneapolis, Minn.) was mixed thoroughly with 1×10^6/mL MSCs, MSC-Fb or αSMA+ cells. Cell-populated collagen solution was cast in 24-well plates for 1 hr at 37° C. to induce gelation. Upon 48-hr incubation, cell-populated collagen lattices were physically detached and allowed to float freely in medium. Up to the tested 7 days, the diameters of cell-populated collagen lattices were measured on digital images.

[4] = tested on: Human mesenchymal stem cells (hMSCs); test: CCN2/CTGF fibroblastic differentiation of hMSCs: collagen deposition (Trichrome staining), collagen type I and tenascin-C ELISA; type: cell-based
Source text: Human mesenchymal stem cells (hMSCs) were isolated from fresh whole bone marrow samples of two anonymous adult donors (age range: 20-25 yrs old) (AllCells, Berkeley, Calif.). Mononucleated and adherent cells were purified by centrifugation through a density gradient (Ficoll-Paque) per our prior methods (30) and using negative selection following manufacturer's protocols (RosetteSep, StemCell Technologies, Vancouver, Canada) to remove hematopoietic cells and other differentiated cells.
Briefly, bone marrow was transferred to a 50 mL tube, followed by addition of […] of RosetteSep and incubation for 20 min. Then 15 mL PBS in 2% fetal bovine serum (FBS) and 1 mM ethylenediaminetetraacetic acid (EDTA) were added to a total volume of ˜30 mL. The sample was layered on 15 mL Ficoll-Paque and centrifuged 25 min at 3000×g. The entire layer of enriched cells was removed from Ficoll-Paque interface. The cocktail was centrifuged at 1000 rpm for 10 min. Collected cells were counted using trypan blue, plated at 0.5-1 million cells per 100 mm dish and allowed to attach for about 5 days, followed by regular medium change every two days. At 80-90% confluence, cells were trypsinized, centrifuged, resuspended in growth medium as passage 1 (P1) cells, and incubated in 5% CO2 at 37° C., with fresh medium changes every 3-4 days. Growth medium was defined as Dulbecco's Modified Eagle's Medium-Low Glucose (DMEM-LG; Sigma, St. Louis, Mo.), 1% antibiotic (1× Antibiotic-Antimycotic, including […] Penicillin G sodium, 10 mg/mL Streptomycin sulfate and 0.25 μg/mL amphotericine B) (Gibco, Invitrogen, Carlsbad, Calif.) and 10% Fetal Bovine Serum (FBS; Atlanta Biologicals, Norcross, Ga.).
P3 or P4 hMSCs were culture-expanded in monolayer (˜5,000 cells/well) in 12-well plates. At 80-90% confluence, hMSCs were culture-supplemented with 0, 10, 50 or 100 ng/mL recombinant human connective tissue growth factor (CTGF) (BioVendor, Candler, N.C.) and 50 μg/mL ascorbic acid (Sigma), with conditioned medium change every third day. […] Accordingly, 100 ng/mL CCN2/CTGF was selected for fibroblastic differentiation for in vitro experiments.
(§1) Two to four weeks following CCN2/CTGF treatment, collagen type I and tenascin-C (Tn-C) were assayed by ELISA using commercial kits (Chondrex, Redmond, Wash. and IBL-America, Minneapolis, Minn.). Collagen type I matrix was lysed using 0.5 M acetic acid. Collagen deposition was visualized using Trichrome staining. Total RNA was isolated using Trizol from CCN2/CTGF-treated hMSCs. Following lysing with Trizol, samples were incubated for 5 min at RT. A total of 0.2 mL chloroform per mL Trizol was added, and followed by mixing and incubation for 3 min. After centrifugation at 12,000×g and 4° C. for 15 min, the upper phase was transferred into a new tube with 500 μL isopropanol added. After 10 min incubation and another centrifugation for 10 min at 12,000×g, the supernatant was discarded. The pellet was washed with 1 mL 75% ethanol and dried for 5-10 min. RNA samples were eluted in 50 μL DEPC-water, assessed for concentration and purity at 260 and 280 nm, and stored at −80° C. prior to reverse transcription. All RNA samples were reverse transcribed using a kit (Applied Biosystems, Foster City, Calif.). For mRNA quantification, real-time quantitative PCR reactions with the cDNA samples were performed using 7300 Real Time PCR System TaqMan® gene expression assays (Applied Biosystems, Foster City, Calif.). Commercially available primers and probes for human collagen types I and III, Tn-C, fibronectin (FN), matrix metallopeptidase-1 (MMP-1), fibroblastic specific protein 1 (FSP1), and vimentin were used (49, 50). Collagen type II (Col-II) and osteocalcin (OC) were selected as chondrogenic and osteogenic differentiation markers, respectively. CD29, CD44, CD105, CD106, CD117, BMPR, and sca1 were selected as MSC markers (30, 31). GAPDH was used as housekeeping gene.

[5] = tested on: Human mesenchymal stem cells (hMSCs); test: Real-time quantitative PCR of MSC, fibroblastic, osteogenic, chondrogenic and myofibroblastic markers in CCN2/CTGF-treated hMSCs; type: cell-based
Procedure: as §1

[6] = tested on: CCN2/CTGF-treated MSCs (MSC-Fb); test: Osteogenic, chondrogenic and adipogenic differentiation of CCN2/CTGF-treated MSCs (von Kossa, Alizarin Red, Safranin O, Oil-Red O); type: cell-based, human
Procedure: Chondrogenic medium was supplemented with 10 ng/mL transforming growth factor β3 (TGFβ3) (R&D Systems, Minneapolis, Minn.), whereas osteogenic medium was supplemented with 100 nM dexamethasone, 10 mM β-glycerophosphate, and 0.05 mM ascorbic acid-2-phosphate (Sigma) per our prior methods (31, 51). At Days 14 and 28, von Kossa staining and calcium assay was performed to evaluate osteogenic differentiation, whereas safranin O (Saf-O) straining and glycosaminoglycan (GAG) assays were performed to evaluate chondrogenic differentiation (Blyscan™, Biocolor, UK).
Osteogenic and chondrogenic medium were prepared as described above. Adipogenic medium contained […], 0.5 mM isobutylmethylxanthine, and […] per our prior methods (31, 52, 53). In 4 wks, Alizarin Red, Saf-O, and Oil-Red O staining were performed.

[7] = tested on: calvarial suture explants; test: Ex vivo modulation of calvarial morphogenesis in organ culture; design: species or system Sprague-Dawley rats
Procedure: Calvarial explants, including frontal and parietal bones with intervening interfrontal, coronal and sagittal sutures were harvested with intact dura mater from p10 male Sprague-Dawley rats (Harlan, Indianapolis, Ind.). Isolated calvaria were placed in 12-well tissue culture plates with serum-free medium supplemented with 0 or 50 ng/mL recombinant human CCN2/CTGF (35), with medium change every 2 days. The CCN2/CTGF concentration was determined (data not shown). Five to 25 days following CCN2/CTGF treatment, Tn-C contents in supernatant were assayed using ELISA. Explant-cultured calvarial sutures were sectioned sagittally for H&E staining and immunohistochemistry. Calvarial sutures were scanned with pCT (vivaCT 40; Scanco, Southeastern, Pa.) to measure suture width.

[8] = tested on: calvarial suture mesenchymal cells; test: Fibroblastic differentiation of calvarial suture mesenchymal cells; type: cell-based, rat; conditions: 100 ng/mL, cells from p7 patent calvarial sutures
Procedure: To isolate calvarial mesenchymal cells, the posterior interfrontal suture excluding calvarial bones was carefully dissected from p7 rat calvaria using surgical scissors. The overlying periosteum and the underlying dura mater were removed under dissection microscope. The isolated suture mesenchyme was lysed using 2 mg/mL collagenase for 1 hr at 37° C., and filtered with a tissue strainer (Fisher, Pittsburgh, Pa.). After centrifugation, the collected cells were counted using trypan blue, plated at 20,000-30,000 cells per 6-well plate, and allowed to attach for about 5 days, followed by medium change every 2-3 days until confluence. P1 or P2 calvarial cells were induced for osteogenic, chondrogenic, adipogenic, and fibroblastic differentiations for 4 wks as described below.

[9] = 2 and 4 wks, vs MSCs without CCN2/CTGF
[10] = 2 and 4 wks of CCN2/CTGF treatment

COC(=O)[C@@]1(O)C[C@H]2O[C@]1(C)n1c3ccccc3c3c4c(c5c6ccccc6n2c5c31)C(=O)NC4 [K252A]
keloid cell matrix synthesis [1]: inhibits keloid cell matrix synthesis

TGFβ1: recombinant human TGFβ1 (R&D Systems), a known stimulant for myofibroblast phenotype
αSMA expression (immunofluorescence) ([2]; 5 ng/mL TGFβ1 on CCN2/CTGF-treated MSCs / MSC-derived fibroblastic cells): readily expressed αSMA+ microfilaments | cells that gained αSMA phenotype (flow cytometry) ([2]; TGFβ1 stimulation of CCN2/CTGF-treated MSCs (MSC-Fb)): 31.9% | cells that gained αSMA phenotype (flow cytometry) ([2]; TGFβ1 stimulation of undifferentiated MSCs without prior CCN2/CTGF treatment): 1.8% | contraction of collagen gel [3]: moderate contraction

B1: CCN2/CTGF: recombinant human connective tissue growth factor (BioVendor); 36-38 kDa cysteine-rich protein of the CCN family; SEQ ID NO: 1 (protein, listed as Homo sapiens)
chain: MTAASMGPVRVAFVVLLALCSRPAVGQNCSGPCRCPDEPAPRCPAGVSLVLDGCGCCRVCAKQLGELCTERDPCDPHKGLFCDFGSPANRKIGVCTAKDGAPCIFGGTVYRSGESFQSSCKYQCTCLDGAVGCMPLCSMDVRLPSPDCPFPRRVKLPGKCCEEWVCDEPKDQTVVGPALAAYRLEDTFGPDPTMIRANCLVQTTEWSACSKTCGMGISTRVTNDNASCRLEKQSRLCMVRPCEADLEENIKKGKKCIRTPKISKPIKFELSGCTSMKTYRAKFCGVCTDGRCCTPHRTTTLPVEFKCPDGEVMKKNMMFIKTCACHYNCPGDNDIFESLYYRKMYGDMA
collagen deposition with dose (Goldner's Trichrome staining) ([4]; 0, 10, 50 or 100 ng/mL, 4 wks): increased with increasing CCN2/CTGF doses | collagen synthesis ([4]; 10 ng/mL): sufficient to stimulate collagen synthesis | collagen synthesis ([4]; 50 ng/mL and 100 ng/mL, compared with 10 ng/mL): apparently more potent | collagen synthesis (Trichrome staining) ([4]; 100 ng/mL, 4 wks, vs MSCs without CCN2/CTGF): induced remarkable collagen synthesis; also recorded: prompted substantial collagen synthesis | collagen type I content (ELISA) [4, 9]: significantly greater; also recorded: significantly higher | tenascin-C content (ELISA) [4, 9]: significantly greater; also recorded: significantly higher | MSC stemness markers (CD29, CD44, CD105, CD106, CD117, BMPR, Sca1) [5, 10]: steady decreases; also recorded: gradually attenuated | fibroblastic mRNA markers (collagen types I and III, Tn-C, fibronectin, MMP-1, FSP1, vimentin) [5, 10]: concomitant increases; also recorded: gradually increased | chondrogenic marker collagen type II expression ([5]; CCN2/CTGF-treated MSCs): undetectable | myofibroblastic marker αSMA expression (RT-PCR) ([5]; CCN2/CTGF-treated MSCs): αSMA negative; also recorded: undetectable | osteogenic marker osteopontin expression ([5]; CCN2/CTGF-treated MSCs): undetectable; also recorded: minimally expressed | Safranin O staining ([6]; CCN2/CTGF-treated MSCs): negative | Von Kossa staining ([6]; CCN2/CTGF-treated MSCs): negative | ability to differentiate into osteogenic, chondrogenic and adipogenic cells ([6]; after 4 wk CCN2/CTGF stimulation (100 ng/mL), vs CCN2/CTGF-free MSCs): diminished ability to differentiate; also recorded: minimal capacity to further differentiate | αSMA expression (flow cytometry) ([2]; CCN2/CTGF-treated MSCs (MSC-Fb), no TGFβ1): general absence of αSMA; also recorded: absence of αSMA expression | αSMA expression (immunofluorescence) ([2]; CCN2/CTGF-treated MSCs, no TGFβ1): did not express αSMA; also recorded: minimal | contraction of collagen gel [3]: moderate contraction | rescue of calvarial suture from ectopic mineralization ([7]; 50 ng/mL to p10 explant for 25 days): rescued the calvarial suture from undergoing ectopic mineralization | rescue of calvarial suture from synostosis ([7]; 100 ng/mL, ex vivo culture to p35): rescued calvarial suture from undergoing synostosis | FSP1 and vimentin expression in calvarial suture ([7]; ex vivo CCN2/CTGF-treated suture): expressed | suture width (μCT) ([7]; p35, vs without CCN2/CTGF): significantly greater; also recorded: significantly wider | Tn-C (tenascin C) content of sutures ([7]; vs CCN2/CTGF-free sutures): significantly greater; also recorded: significantly more | differentiation into fibroblast-like cells (Trichrome) [8]: readily differentiated into fibroblast-like cells that are highly Trichrome positive
